Assay: in vitro
Assay type: in vitro ADME
Settings: human, plasma

Structure (SMILES) | half-life [days]
[N-]=[N+]=NC(CCCCNC(=O)[C@H](CCC(=O)O)NC(=O)C1=C[C@H](O)[C@@H](NC(=O)[C@H](CCC(=O)O)NC(=O)C2=C[C@H](O)[C@@H](NC(=O)[C@H](CCC(=O)O)NC(=O)C3=C[C@H](O)[C@@H](NC(=O)CN4CCN(CC(=O)O)CCN(CC(=O)O)CCN(CC(=O)O)CC4)[C@H]([C@H](O)[C@H](O)CO)O3)[C@H]([C@H](O)[C@H](O)CO)O2)[C@H]([C@H](O)[C@H](O)CO)O1)C(N)=O (some centres unmarked) [compound 10] | 16.2
[N-]=[N+]=NC(CCCCNC(=O)C1=C[C@H](O)[C@@H](NC(=O)[C@@H](CCC(=O)O)NC(=O)C2=C[C@H](O)[C@@H](NC(=O)[C@@H](CCC(=O)O)NC(=O)C3=C[C@H](O)[C@@H](NC(=O)[C@@H](CCC(=O)O)NC(=O)CN4CCN(CC(=O)O)CCN(CC(=O)O)CCN(CC(=O)O)CC4)[C@H]([C@H](O)[C@H](O)CO)O3)[C@H]([C@H](O)[C@H](O)CO)O2)[C@H]([C@H](O)[C@H](O)CO)O1)C(N)=O (some centres unmarked) [compound 7] | 4.08

Reference: PMC4504198 (Chemical biology & drug design, 2010)
